{
  "source": "patent US20190218261A1",
  "about": "“TARGETED ENHANCED DNA DEMETHYLATION” (The Jackson Laboratory, priority 2016, published 2019)",
  "key": {"[1]": {"tested_on": "hMLH1 expression (methylation-silenced hMLH1 promoter) in HEK293T cells", "test": "hMLH1 mRNA levels by TaqMan qRT-PCR in transfected HEK293T cells", "assay_type": "cell-based, human", "procedure": "To test the system, HEK293T cells were transfected with Casilio-ME components including Ct or Nt-fusion TET1-effector and a combination of 3 or 2 sgRNAs. Relative levels of hMLH1 mRNA were determined in TaqMan assays by using RNA extracted from cells 60 hours post-transfection and GAPDH as endogenous control for normalization of qRT-PCR measurements.\nCell culture and transfection. HEK293T cells were cultivated in Dulbecco's modified Eagle's medium (DMEM)(Sigma) with 10% fetal bovine serum (FBS)(Lonza), 4% Glutamax (Gibco), 1% Sodium Pyruvate (Gibco) and penicillin-streptomycin (Gibco) in an incubator set to 37° C. and 5% CO2. When indicated cells were treated with 2.5 μM or 5 μM 5-Azacytidine (sigma) as indicated with a daily change of medium containing freshly diluted drug. Cells were seeded into 12-well plates at 150,000 cells per well the day before being transfected with 100 ng of dCas9 construct, 100 ng of modified sgRNA construct and 200 ng of PUF-fusion with Attractene transfection reagent according to manufacturer's instructions (Qiagen). In dCas9-direct fusion experiments, cells were transfected with 200 ng dCas9-fusion constructs and 200 ng of modified sgRNA constructs. Transfected cells were harvested 60 hours after transfection, or otherwise indicated, and cell pellets were used for extractions of RNA, genomic DNA and protein.\nQuantitative RT-PCR analysis. Cells were harvested, washed with Dulbecco's phosphate-buffered saline (dPBS), centrifuged at 125×g for 5 min and then the flash-frozen pellets were stored at −80° C. RNA was extracted using RNeasy Plus Mini Kit according to the manufacturer's instructions (Qiagen). cDNA libraries were made using Applied Biosystems High Capacity RNA-to-cDNA kit with 200 ng to 1 μg of RNA. TaqMan gene expression assays (Applied Biosystems) were designed using GAPDH (Hs03929097, VIC) as endogenous control and hMLH1 (Hs00179866, FAM) as target. TaqMan Universal Master Mix II, with UNG (Applied Biosystems) was used for Quantitative PCR (qPCR), with 2 μl of diluted cDNA used for each reaction. Activation was analyzed with the Applied Biosystems ViiA7 instrument. Gene expression levels were calculated by “delta delta Ct” algorithm and normalized to control samples.\nHEK293T cells were cultivated in Dulbecco's modified Eagle's medium (DMEM) (Sigma) with 10% fetal bovine serum (FBS) (Lonza), 4% Glutamax (Gibco), 1% Sodium Pyruvate (Gibco) and penicillin-streptomycin (Gibco) in an incubator set to 37° C. and 5% CO2. Cells were seeded into 12-well plates at 150,000 cells per well the day before being transfected with 100 ng of dCas9 construct, 100 ng of modified sgRNA construct and 200 ng of PUF-fusion with Attractene transfection reagent according to manufacturer's instructions (Qiagen). Transfected cells were harvested 3 days after transfection, or otherwise indicated, and cell pellets were used for RNA extractions.\nCells were harvested, washed with Dulbecco's phosphate-buffered saline (dPBS), centrifuged at 125×g for 5 min and then the flash-frozen pellets were stored at −80° C. RNA was extracted using RNeasy Plus Mini Kit according to the manufacturer's instructions (Qiagen). cDNA libraries were made using Applied Biosystems High Capacity RNA-to-cDNA kit with 200 ng to 2 μg of RNA. TaqMan gene expression assays (Applied Biosystems) were designed using GAPDH (Hs03929097, VIC) as endogenous control and hMLH1 (Hs00179866, FAM) as target. TaqMan Universal Master Mix II, with UNG (Applied Biosystems) was used for Quantitative PCR (qPCR), with 2 μl of diluted cDNA used for each reaction. Activation was analyzed with the Applied Biosystems ViiA7 instrument. Gene expression levels were calculated by “delta delta Ct” algorithm and normalized to control samples."}, "[2]": {"tested_on": "MLH1 protein in HEK293T cells", "test": "Western blot of MLH1 protein with anti-hMLH1 monoclonal antibody", "assay_type": "cell-based, human", "details": "HEK293T collected 3 day after transfection", "procedure": "To determine the effect of Casilio-ME targeting on MLH1 protein synthesis, Western blot analyses were performed on total protein extracted from HEK293T transfected cells as well as untransfected HEK293 and AzaC-treated HEK293T cells using anti-hMLH1 monoclonal antibody. […] Casilio-ME-mediated induction of MLH1 synthesis is still remarkable and could be improved by, for example, tilling multiple guide RNAs to augment the range and efficiency of CpG demethylation to achieving better activation of hMLH1 expression.\nWestern blot analysis. Protein from cell extracts (30 μg) were separated by electrophoresis on 10% SDS-polyacrylamide gels and then transferred to nitrocellulose membranes at 100 V for 1 hour using Bjerrum Schafer-Nielsen Buffer with SDS. Blocked membrane in 5% Blotting-Grade Blocker (BioRad) in TBS-T were then incubated overnight at 4° C. with the indicated antibodies, and the protein bands were detected using Horseradish peroxidase-conjugated secondary antibodies and Clarity Western ECL Substrate according to manufacturer's instructions (BioRad). Gels were imaged using a G:Box (Syngene)."}},
  "data": [
    {"molecule": "GADD45A-PUFa-TET1(CD): GADD45A at N-terminus of PUFa-TET1(CD); SEQ ID NO:104 (protein) MTLEEFSAGEQKTERMDKVGDALEEVLSKALSQRTITVGVYEAAKLLNVDPDNVVLCLLAADEDDDRDVALQIHFTLIQAFCCENDINILRVSNPGRLAELLLLETDAGPAASEGAEQPPDLHCVLVTNPHSSQWKDPALSQLICFCRESRYMDQWVPVINLPERSRTGAATMIDGGGGSDPKKKRKVDPKKKRKVDPKKKRKVGSTGSRNDGGGGSGGGGSGGGGSGRAGILPPKKKRKVSRGRSRLLEDFRNNRYPNLQLREIAGHIMEFSQDQHGSRFIQLKLERATPAERQLVFNEILQAAYQLMVDVFGNYVIQKFFEFGSLEQKLALAERIRGHVLSLALQMYGSRVIEKALEFIPSDQQNEMVRELDGHVLKCVKDQNGNHVVQKCIECVQPQSLQFIIDAFKGQVFALSTHPYGCRVIQRILEHCLPDQTLPILEELHQHTEQLVQDQYGNYVIQHVLEHGRPEDKSKIVAEIRGNVLVLSQHKFASNVVEKCVTHASRTERAVLIDEVCTMNDGPHSALYTMMKDQYANYVVQKMIDVAEPGQRKIVMHKIRPHIATLRKYTYGKHILAKLEKYYMKNGVDLGDPKKKRKVDPKKKRKVGGRGGGGSGGGGSGGGGSGPAELPTCSCLDRVIQKDKGPYYTHLGAGPSVAAVREIMENRYGQKGNAIRIEIVVYTGKEGKSSHGCPIAKWVLRRSSDEEKVLCLVRQRTGHHCPTAVMVVLIMVWDGIPLPMADRLYTELTENLKSYNGHPTDRRCTLNENRTCTCQGIDPETCGASFSFGCSWSMYFNGCKFGRSPSPRRFRIDPSSPLHEKNLEDNLQSLATRLAPIYKQYAPVAYQNQVEYENVARECRLGSKEGRPFSGVTACLDFCAHPHRDIHNMNNGSTVVCTLTREDNRSLGVIPQDEQLHVLPLYKLSDTDEFGSKEGMEAKIKSGAIEVLAPRRKKRTCFTQPVPRSGKKRAAMMTEVLAHKIRAVEKKPIPRIKRKNNSTTTNNSKPSSLPTLGSNTETVQPEVKSETEPHFILKSSDNTKTYSLMPSAPHPVKEASPGFSWSPKTASATPAPLKNDATASCGFSERSSTPHCTMPSGRLSGANAAAADGPGISQLGEVAPLPTLSAPVMEPLINSEPSTGVTEPLTPHQPNHQPSFLTSPQDLASSPMEEDEQHSEADEPPSDEPLSDDPLSPAEEKLPHIDEYWSDSEHIFLDANIGGVAIAPAHGSVLIECARRELHATTPVEHPNRNHPTRLSLVFYQHKNLNKPQHGFELNKIKFEAKEAKNKKMKASEQKDQAANEGPEQSSEVNELNQIPSHKALTLTHDNVVTVSPYALTHVAGPYNHWVID", "values": [
      {"measurement": "enhancement of hMLH1 expression relative to PUFa-TET1(CD) alone", "setting": "[1]; GADD45A two-in-one effectors, HEK293T, TaqMan", "value": "approximately 9 fold"},
      {"measurement": "ranking of activation among GADD45A and TET1(CD) fusion configurations", "setting": "[1]; methylation-silenced hMLH1", "value": "highest activity"},
      {"measurement": "MLH1 protein amount by Western blot (whole cell extracts)", "setting": "[2]", "value": "higher protein amounts"}
    ]}
  ]
}
